Experimental data from patent publication US20090325867A1, “RECEPTOR-SPECIFIC TUMOUR NECROSIS FACTOR-RELATED APOPTOSIS-INDUCING LIGAND (TRAIL) VARIANTS” (MEDICAL RESEARCH COUNCIL, priority 2005, published 2009).

Key:
[1] = target: TRAIL receptor 1 (TRAIL-R1) (Homo sapiens (Human)) (UniProt O00220)
[2] = target: TRAIL receptor 1 (TRAIL-R1) (Homo sapiens (Human)) (UniProt O00220); remark: listed apart in the source

| apoptosis of primary MCL cells after depsipeptide (5 nM, 16 h) [1] [%] | % PS+ cells (apoptosis by phosphatidylserine externalization), Ramos cells, 4 h, 500 ng/ml [2] [% PS+ cells] | apoptosis of primary MCL cells without depsipeptide [1] [%] | Substance |
| --- | --- | --- | --- |
| 68.2 |  |  | HGS-ETR1 (antibody) |
|  | 41.8 | 25.5 | His-TRAIL (wild type, residues 95-281) (from UniProt P50591) (ligand) |
